Where two headings read alike, the source gives them in different places.
Legend:
Lm Hfq F43W = molecular target: T1, Lm Hfq F43W (Listeria monocytogenes, UniProt Q92C58 1-77, F43W); assay: Trp fluorescence quenching
T1 sequence: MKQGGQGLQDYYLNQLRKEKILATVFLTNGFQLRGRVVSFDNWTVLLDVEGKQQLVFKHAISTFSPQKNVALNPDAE

Ec Hfq F42W [1] = molecular target: T2, Ec Hfq F42W (Escherichia coli, UniProt P0A6X3 1-102, F42W); assay: Trp fluorescence quenching
Ec Hfq F39W [2] = molecular target: T3, Ec Hfq F39W (Escherichia coli, UniProt P0A6X3 1-102, F39W); assay: Trp fluorescence quenching
Ec Hfq G77W [3] = molecular target: T4, Ec Hfq G77W (Escherichia coli, UniProt P0A6X3 1-102, G77W); assay: Trp fluorescence quenching
Ec Hfq Q33W = Ec Hfq Q33W (Escherichia coli, UniProt P0A6X3 1-102, Q33W); assay: Trp fluorescence quenching
Ec Hfq Y83W [4] = molecular target: T5, Ec Hfq Y83W (Escherichia coli, UniProt P0A6X3 1-102, Y83W); assay: Trp fluorescence quenching
Ec Hfq F11W [5] = molecular target: T6, Ec Hfq F11W (Escherichia coli, UniProt P0A6X3 1-102, F11W); assay: Trp fluorescence quenching
Sa Hfq Q31W = Sa Hfq Q31W (Staphylococcus aureus, UniProt A0A0H3JV59 1-77, Q31W); assay: Trp fluorescence quenching
Ec Hfq Y25W = Ec Hfq Y25W (Escherichia coli, UniProt P0A6X3 1-102, Y25W); assay: Trp fluorescence quenching
Sa Hfq F25W = Sa Hfq F25W (Staphylococcus aureus, UniProt A0A0H3JV59 1-77, F25W); assay: Trp fluorescence quenching
Ec Hfq Y83W [6] = molecular target: T5, Ec Hfq Y83W; assay: Trp fluorescence quenching; remark: listed apart in the source
Ec Hfq F39W [7] = molecular target: T3, Ec Hfq F39W; assay: fluorescence polarization
Ec Hfq F42W [8] = molecular target: T2, Ec Hfq F42W; assay: fluorescence polarization
Ec Hfq G77W [9] = molecular target: T4, Ec Hfq G77W; assay: fluorescence polarization
Ec Hfq K31W = Ec Hfq K31W (Escherichia coli, UniProt P0A6X3 1-102, K31W); assay: fluorescence polarization
Ec Hfq F11W [10] = molecular target: T6, Ec Hfq F11W; assay: fluorescence polarization
Ec Hfq Q95W = Ec Hfq Q95W (Escherichia coli, UniProt P0A6X3 1-102, Q95W); assay: fluorescence polarization
Ec Hfq R17W [11] = molecular target: T7, Ec Hfq R17W (Escherichia coli, UniProt P0A6X3 1-102, R17W); assay: fluorescence polarization
Ec Hfq Y83W [12] = molecular target: T5, Ec Hfq Y83W; assay: fluorescence polarization
Hfq WT = Hfq WT (Escherichia coli, UniProt P0A6X3 1-102); assay: fluorescence polarization
Ec Hfq R17W [13] = molecular target: T7, Ec Hfq R17W; assay: Trp fluorescence quenching

B1: U6 (ssRNA)
RNA: UUUUUU
B1: binds (Lm Hfq F43W); binds (Ec Hfq F42W [1]).

B2: hfq mRNA site A 24-mer (structured_RNA)
RNA: AUUUUUUCAGAAUCGAAAGGUUCA
B2: binds (Ec Hfq F39W [2]); binds (Ec Hfq G77W [3]); binds (Ec Hfq Q33W). B2: binds (Ec Hfq Y83W [4]).

B3: (AAG)5 (ssRNA)
RNA: AAGAAGAAGAAGAAG
B3: binds (Ec Hfq Q33W); binds (Ec Hfq F11W [5]).

B4: A15 (ssRNA)
RNA: AAAAAAAAAAAAAAA
B4: binds (Sa Hfq Q31W); binds (Ec Hfq Y25W); binds (Ec Hfq Q33W). B4: binds (Sa Hfq F25W).

B5: (AU)3A (ssRNA)
RNA: AUAUAUA
B5: binds (Lm Hfq F43W); binds (Sa Hfq Q31W); binds (Sa Hfq F25W).

B6: (GU)3G (ssRNA)
RNA: GUGUGUG
B6: binds (Lm Hfq F43W).

B7: (GGA)5 (ssRNA)
RNA: GGAGGAGGAGGAGGA
B7: binds (Ec Hfq F42W [1]); binds (Ec Hfq Y83W [6]).

B8: A15 (fluorescein) (ssRNA)
RNA: AAAAAAAAAAAAAAA
For B8, the Kd (Ec Hfq F39W [7]) was 0.59 ± 0.35 nM, the Kd (Ec Hfq F42W [8]) was 0.28 ± 0.09 nM and the Kd (Ec Hfq G77W [9]) was 2.9 ± 1.7 nM. The Kd (Ec Hfq K31W) was 1.4 ± 0.5 nM, the Kd (Ec Hfq F11W [10]) was 7.1 ± 0.6 nM and the Kd (Ec Hfq Q95W) was 2.6 ± 1.1 nM. It also gave a Kd (Ec Hfq R17W [11]) of 3.7 ± 1.5 nM and a Kd (Ec Hfq Y83W [12]) of 7.4 ± 2.8 nM.

B9: U16 (fluorescein) (ssRNA)
RNA: UUUUUUUUUUUUUUUU
B9 was tested, and the Kd (Hfq WT) was 6.6 nM.

B10: (AC)3A (ssRNA)
RNA: ACACACA
B10: binds (Sa Hfq Q31W); binds (Sa Hfq F25W).

B11: hfq 5'-UTR (64 nt) (structured_RNA)
RNA: GGAUUUUUUCAGAAUCGAAAGGUUCAAAGUACAAAUAAGCAUAUAAGGAAAAGAGAGAAUGGGAUC
B11: binds (Ec Hfq F42W [1]); binds (Ec Hfq Q33W); binds (Ec Hfq R17W [13]).

B12: hfq mRNA site B 24-mer (ssRNA)
RNA: GCAUAUAAGGAAAAGAGAGAAUGG
B12: binds (Ec Hfq F39W [2]); binds (Ec Hfq F42W [1]); binds (Ec Hfq Y25W). B12: binds (Ec Hfq Q33W); binds (Ec Hfq F11W [5]); binds (Ec Hfq Y83W [4]).
